Results taken from patent US20100278806A1, “Composition Containing Arazyme for the Prevention and Treatment of Arthritis” (Insect Biotech Co., Ltd., priority 2008, published 2010).

Assays:
[1] = system: joint cartilage of osteoarthritis-induced right knee; experiment: Histopathological observation of joint cartilage (H&E, toluidine blue, azan), osteoarthritis-induced rabbits; type: in vivo, NewZealand White Rabbits; settings: autopsy at 12 weeks, optical microscope
Text: (§1) It is known that not only repetitive joint damage but also a lesion similar to that of human degenerative osteoarthritis is induced in a rabbit model with knee meniscus removed. A method for tearing the cranial cruciate ligament is used as a method for inducing osteoarthritis in rabbits (Hulth A. et al., Acta Orthp Scand. 41:522-530, 1970). In the present experiment, the cranial cruciate ligament of a rabbit was torn to induce the instability of joints and simultaneously medial meniscus was removed to induce osteoarthritis.
The cranial cruciate ligaments of right knees of all the experimental animals were torn to induce the instability of joints and medial meniscuses were simultaneously removed to induce osteoarthritis. Sharm-operations were performed on the left knees to be used as a control against administration of a test material. Tear of cranial cruciate ligament and medial meniscus removal were performed as follows. The animals were fasted for 6 to 12 hours prior to the operation and only drinking water was supplied. Subsequently, an anesthetic of Xylazine (Rompun, Bayer Korea Ltd.) at 1.25 ml/6 mg/kg and Zoletil50 (Virbac) at 0.2 ml/10 mg/kg was intramuscularly injected to anesthetize the animals. […]
(§2) In order to induce osteoarthritis effectively, all the animals in the experimental group were subjected to a forced exercise task using a treadmill for 5 min every day from the day 4 after the induction surgery of osteoarthritis, and arthrography was performed on both knee joints at 4 weeks, 8 weeks, and 12 weeks after administration of the test material to measure the changes of joint surface. An autopsy was performed at 12 weeks after administration of the test material to conduct serologic tests of blood samples through collection of blood and control effects of the test material on osteoarthritis were assessed through a histopathological test. […]

[2] = system: TNF-α; experiment: Measurement of TNF-α in serum by ELISA, osteoarthritis-induced rabbits; type: in vivo, NewZealand White Rabbits; settings: autopsy at 12 weeks of administration in drinking water, arazyme 250 mg/kg, celecoxib 10 mg/kg/day, no statistical significance
Text: as §1
(§3) The cranial cruciate ligaments of right knees of all the experimental animals were torn to induce the instability of joints and medial meniscuses were simultaneously removed to induce osteoarthritis. […]
as §2

[3] = system: joint cartilage of osteoarthritis-induced right knee; experiment: Visual observation of the changes of joint cartilage, osteoarthritis-induced rabbits; type: in vivo, NewZealand White Rabbits; settings: autopsy at 12 weeks
Text: as §1, §3, §2

[4] = system: Wistar-derived SPF female rats; experiment: Acute toxicity experiment of arazyme, single oral administration; type: in vivo
Method: 4 groups, each consisting of 4 Wistar-derived specific pathogen free (SPF) female rats (Orient Co., Ltd., Seoul, Korea), were bred in an animal laboratory under conditions of temperature 22° C.±3° C., humidity 55±10%, and illumination 12 L/12 D. After purchase, the rats were quarantined and adapted in the animal laboratory for 1 week. During the whole test period, 5 or less rats were accommodated in each polycarbonate cage (240 W×390 L×175 H mm). For individual identification, both skin mark using an oil marker and group distinction cards at each breeding box were used. Solid fodder for experimental animals (PMI Nutrition International, USA) was sterilized, and tap water was freely given by a water bottle.
Arazyme in the Examples was dissolved in sterilized water for injection at 0, 1250, 2500, and 5000 mg/kg, prepared at a dose of 10 ml/kg, and orally administered to the rats using zonde one. After 1 week adaptation, the rats were divided into 4 groups and arazyme was administered to 10 week-old rats at each concentration to observe general symptoms. Subsequently, an autopsy was performed after 24 hours in order to evaluate the toxicity of arazyme on actual organs.
After oral administration of arazyme into female rats, the behaviors, appearances, and functions of the animals were investigated in order to observe general symptoms exactly according to the administration of a test material and evaluate the toxicity.

[5] = after single oral administration up to 5000 mg/kg

B1: arazyme: enzyme purified from Aranicola proteolyticus HY-3 (KCTC 0268BP) culture; monomer of approximately 51.5 kDa; amino acid sequence SEQ ID No: 1 (protein, listed as Aranicola proteolyticus)
chain: MQSTKKAIEITESSLAAASSAYNAVDDLLHYHERGNGIQVNGKDSFSTEQAGLFITRENQTWNGYKVFGQPVKLTFSFPDYKFSSTNVAGDTGLSKFSAEQQQQAKLSLQSWSDVANITFTEVGAGQKANITFGNYSQDRPGHYDYDTQAYAFLPNTIYQGQNLGGQTWYNVNQSNVKHPASEDYGRQTFTHEIGHALGLSHPGDYNAGEGNPTYRDASYAEDTREFSLMSYWSETNTGGDNGGHYAAAPLLDDISAIQHLYGANQTTRTGDTVYGFNSNTGRDFLSTTSNPQKVIFAAWDAGGNDTFDFSGYTANQRINLNEKSFSDVGGLKGNVSIAAGVTIENAIGGSGNDVIVGNAANNVLKGGAGNDVLFGGGGADELWGGAGKDTFVFSAVSDSAPGASDWIKDFQKGIDKIDLSFFNQGAQGGDQIHFVDHFSGAAGEALLSYNASNNVSDLALNIGGHQAPDILVKIVGQVDVATDFIV
modifications: Zn binding site (192)..(192); Zn binding site (196)..(196); Zn binding site (323)..(323)
- damage of joint cartilage, hematoxylin-eosin staining [1]: most of the vertical fissures were formed into sites corresponding to the mid zones from the surface
- loss of collagen, azan staining [1]: weak loss of collagen
- loss of proteoglycan, toluidine blue staining [1]: proteoglycan was lost into the mid zone
- expression of TNF-α in serum compared with negative control group [2]: at a lower level than the negative control group
- cartilage damage of femoral joint surface, visual observation ([3]; arazyme 250 mg/kg, celecoxib 10 mg/kg/day): less cartilage damage was generally shown than in the negative control group
- lesions of tibia joint surface, visual observation ([3]; positive control group compared with test material group): generally similar lesions were observed in the groups
- microscopic findings in liver, heart, lung and pancreas ([4]; 24 hours after oral administration up to 5000 mg/kg): No pathological symptoms were observed
- general symptoms (activity, walking, temperament, convulsion) [4, 5]: no abnormal symptoms
- outward appearance and functions (respiration, salivation, feces, vomiting) [4, 5]: No abnormal changes were observed
- estimated LD50 ([4]; single oral administration 0, 1250, 2500, 5000 mg/kg): at least 5000 mg/kg
